± gives the uncertainty stated by the source.
Test: amyloid nucleation score (Sup35N fusion, yeast selection) (log enrichment); library NNK3; higher = more nucleation; inactive = no reads after selection
Procedure, shortened: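 Three technical output replicates were used for random libraries. Psi-negative yeast expressing peptides of 20 random codons fused to Sup35N were induced with 100 μM copper sulfate for 24 hours and grown 7 days at 30°C on medium lacking adenine and uracil, and input and output plasmid inserts were Illumina-sequenced, excluding sequences with under 100 input reads. The nucleation score is the DiMSum log enrichment of output over input reads, centred on the mode score of non-aggregating sequences.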

Row | Substance | amyloid nucleation score
1 | WDGYCSRQDRLRFAYRLGVG | inactive
2 | WDKSLSVRTQVCHNRDS | inactive
3 | WDMWPGI | inactive
4 | WECRDETSCARVVFTGLFR | inactive
5 | WEPYTCIYC | inactive
6 | WFAGGHGKESIINWHYCQYM | inactive
7 | WFCVLMDSAWDCRVIGGGGR | 1.1 ± 0.13
8 | WFFMTCNGCFDHGGVKCLRS | inactive
9 | WFMREAWIWSAPFWPWIRNT | inactive
10 | WFMVIAVCMSAFESKLARFH | inactive
11 | WFSNVGVVEVASSRCREWGI | inactive
12 | WFTQERHSVPLLIWMGLRRQ | 2.03 ± 0.075
13 | WFWRVNIMKTIGLSHSRHEG | inactive
14 | WGDDGNTFYE | inactive
15 | WGESNVSTIV | inactive
16 | WGFLQLHEPS | inactive
17 | WGFRWNKCLNLAQPWLMALS | inactive
18 | WGFVIIYELKNLMCVMRPPS | inactive
19 | WGGVGKKMKRQRTAGTSRSG | inactive
20 | WGICFVITYNIKIKYDHLMS | 1.18 ± 0.081
21 | WGITA | inactive
22 | WGSGY | inactive
23 | WGVGTPVRLWFIEANPVGHV | inactive
24 | WIDFLSRLTIRGSDMYHQEY | 0.37 ± 0.29
25 | WIERAAAALVLDLLCSKRRA | inactive
26 | WIGSRGHQCPYRSSVTMMGT | inactive
27 | WIKGVRIRPL | inactive

Row | Substance | amyloid nucleation score
28 | WIMWTLAIKIIMCW | inactive
29 | WIRVDRCGCARVPLGDHVKK | inactive
30 | WISEDTRLLHWLLQCVWIRI | -0.531 ± 1.4
31 | WIVLQTSNSRLMQWGAP | 0.618 ± 0.27
32 | WIWVVVHFYDLECQLDS | inactive
33 | WIYYNAVFHACCVYELSNNA | 2.85 ± 0.067
34 | WKRNFIW | inactive
35 | WKYRSKRWMMLSASVRLYSS | inactive
36 | WLFLVN | inactive
37 | WLGKYVLVSEYIV | inactive
38 | WLGWPD | inactive
39 | WLLLLSK | inactive
40 | WLLPQKGLMG | inactive
41 | WLTYYIDFRVILSFQSVRDY | inactive
42 | WLWKVSFK | 1.41 ± 0.093
43 | WLYARISADHDCLLKPELRM | inactive
44 | WMVVTMPSLKCGSYASVHGA | inactive
45 | WNDRKSYLYSAIAMKARSVY | inactive
46 | WNFWNNFKSLEWEVLARYFF | inactive
47 | WNPYAIARKAIVRGSVKWGV | inactive
48 | WNRAVCIMSNIWIMDLPVLK | inactive
49 | WPFMNYVNENCSWYSS | 1.09 ± 0.14
50 | WPIIGTLNRTSGSDR | inactive
51 | WPVNCMKGSSCNRELFNH | inactive
52 | WQLRQGDLGSHVRRFLQLYR | inactive
53 | WQNEMYGRCVLCKLRYNEPD | inactive
54 | WQTDEDRRCKTDFISLF | inactive

Row | Substance | amyloid nucleation score
55 | WRIDDY | inactive
56 | WRRCMRYGTASASSSENAHY | 0.837 ± 0.18
57 | WRRGFVNSRGYNLRFWGHYF | inactive
58 | WSCASSCFY | inactive
59 | WSFMLFSVSYYNQGEAVLPA | inactive
60 | WSGNCFNQSKLAWYDHYHQW | inactive
61 | WSVVRRAELSNSVKFEDHGM | inactive
62 | WSYNITK | inactive
63 | WTDVRGMVSSINGRSTSRVP | inactive
64 | WTGLLLCVF | -0.093 ± 0.85
65 | WTIDTD | inactive
66 | WTRESLQYTGNSYGALSTFF | inactive
67 | WTSDSRCYMNLKRCRGYTLF | inactive
68 | WTVIDYDKTWIYLLASVLYL | inactive
69 | WVCDRLGRVSLILRL | 1.06 ± 0.2
70 | WVEWIWSWKNDVPLVCRASA | inactive
71 | WVFISKQLVNDVAWPVLCAL | -0.17 ± 0.85
72 | WVFSWKMHRSKSKYRSKYLP | inactive
73 | WVFVDLLSNVVFNGKIVERC | inactive
74 | WVHCSPGDRSFTLGTPSFHK | inactive
75 | WVRVVFSGSRYRTVCSGSRC | -0.788 ± 1.4
76 | WVVQE | -0.553 ± 0.93
77 | WWAVTKFTAFYMRVIYKIGR | inactive
78 | WWIARIRMHGCCDVYLGQHR | 2.6 ± 0.087
79 | WYADICCCQIFRCWKLDRWS | inactive
80 | WYFGCSALYQL | 1.49 ± 0.099

Reference: the supplement of paper PMC12042874
